From US20210403565A1 (BIOATLA, published 2021)

T1: human CTLA4 expressed on the cell surface of CHO cells (human, UniProt P16410 36-223)
T1 construct: whole, on cells; also called CHO-huCTLA4; huCTLA4
T1 sequence (looked up): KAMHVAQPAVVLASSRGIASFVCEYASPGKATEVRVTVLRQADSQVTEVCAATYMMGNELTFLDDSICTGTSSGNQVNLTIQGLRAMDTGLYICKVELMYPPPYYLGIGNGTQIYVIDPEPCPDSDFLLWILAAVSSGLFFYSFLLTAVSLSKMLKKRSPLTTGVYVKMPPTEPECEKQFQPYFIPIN

T2: recombinant human CTLA4 extracellular domain (human, UniProt P16410 36-161)
T2 construct: extracellular domain; also called huCTLA-4
T2 sequence (looked up): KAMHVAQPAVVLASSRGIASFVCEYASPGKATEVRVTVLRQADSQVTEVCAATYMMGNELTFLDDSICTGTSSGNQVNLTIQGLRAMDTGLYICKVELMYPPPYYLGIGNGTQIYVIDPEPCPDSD

T3: human CTLA4 on CTLA4 Jurkat effector cells (Promega CTLA4 Blockade Assay) (human, UniProt P16410 36-223)
T3 sequence (looked up): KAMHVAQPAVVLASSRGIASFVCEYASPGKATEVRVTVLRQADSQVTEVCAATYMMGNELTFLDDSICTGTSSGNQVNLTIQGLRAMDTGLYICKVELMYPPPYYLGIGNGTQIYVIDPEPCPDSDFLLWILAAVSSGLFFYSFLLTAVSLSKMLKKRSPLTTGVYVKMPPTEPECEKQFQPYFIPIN


Assays:
[1] = target: T1, human CTLA4 expressed on the cell …; assay: FACS, cells expressing human CTLA4, assay pH 7.4, MFI; lot 6978 in His buffer, T2W; unit from the axis Log[ng/mL]
Experimental: (§1) The amount of bound antibodies was quantified using anti-human IgG antibody conjugated to fluorophores. The MFI in each reaction was proportional to the amount of antibodies bound. The EC₅₀ value (in ng/mL) for binding to human CTLA4 on cells was determined by MFI of the singlets population against antibody concentration with a Prism variable slope of four-parameter dose-response curve, which was calculated using the nonlinear fit (variable slope, four parameters) model built into GraphPad Prism software (version 7.03).

[2] = target: T1, human CTLA4 expressed on the cell …; assay: FACS, cells expressing human CTLA4, assay pH 6.0, MFI; lot 6978 in Tris buffer, T0; unit from the axis Log[ng/mL]
Experimental: as §1

[3] = target: T1, human CTLA4 expressed on the cell …; assay: FACS, cells expressing human CTLA4, assay pH 7.4, MFI; lot 6978 in Tris buffer, T2W; unit from the axis Log[ng/mL]
Experimental: as §1

[4] = target: T2, recombinant human CTLA4 extracellular …; assay: ELISA, wells coated with human CTLA4, assay pH 6.0; lot 6978 in His buffer, T2W; unit from the axis Log[ng/mL]
Experimental: (§2) Both ELISA and FACS analysis were used to measure the binding activity. […] The amount of bound antibodies was quantified using anti-human IgG antibody conjugated to HRP. The absorbance at 450 nm in each measurement was proportional to the amount of antibodies bound. […] EC50 value (in ng/mL) for binding to human CTLA4 was determined by absorbance at 450 nm against antibody concentration with Prism variable slope of four-parameter dose-response curve, which was calculated using the nonlinear fit (variable slope, four parameters) model built into GraphPad Prism software (version 7.03). The buffers tested included His buffer (His), Tris buffer (Tris), Glutamine buffer (Glu) and no buffer.

[5] = target: T1, human CTLA4 expressed on the cell …; assay: FACS, cells expressing human CTLA4, assay pH 7.4, MFI; lot 6978 in Glu buffer, T2W; unit from the axis Log[ng/mL]
Experimental: as §1

[6] = target: T2, recombinant human CTLA4 extracellular …; assay: ELISA, wells coated with human CTLA4, assay pH 7.4; lot 6978 in Glu buffer, T0; curve still rising at log 3 (OD450 at most about 0.3), no plateau; unit from the axis Log[ng/mL]
Experimental: as §2

[7] = target: T1, human CTLA4 expressed on the cell …; assay: FACS, cells expressing human CTLA4, assay pH 7.4, MFI; lot 6978 in Glu buffer, T0; unit from the axis Log[ng/mL]
Experimental: as §1

[8] = target: T1, human CTLA4 expressed on the cell …; assay: FACS, cells expressing human CTLA4, assay pH 7.4, MFI; lot 6978 in Tris buffer, T0; unit from the axis Log[ng/mL]
Experimental: as §1

[9] = target: T2, recombinant human CTLA4 extracellular …; assay: ELISA, immobilised huCTLA-4, table head pH 7.0 (text: pH 7.4), mean +/- SD
[10] = target: T3, human CTLA4 on CTLA4 Jurkat effector …; assay: cell-based or functional assay
[11] = target: T2, recombinant human CTLA4 extracellular …; assay: ELISA, wells coated with human CTLA4, assay pH 6.0; lot 6972 in Tris buffer, T2W; unit from the axis Log[ng/mL]
Experimental: as §2

[12] = target: T1, human CTLA4 expressed on the cell …; assay: FACS, cells expressing human CTLA4, assay pH 6.0, MFI; lot 6972 control without test buffer; same column repeated in FIG. 10B and FIG. 10C; unit from the axis Log[ng/mL]
Experimental: as §1

[13] = target: T1, human CTLA4 expressed on the cell …; assay: FACS, cells expressing human CTLA4, assay pH 6.0, MFI; lot 6972 in Tris buffer, T2W; unit from the axis Log[ng/mL]
Experimental: as §1

[14] = target: T2, recombinant human CTLA4 extracellular …; assay: ELISA, wells coated with human CTLA4, assay pH 6.0; lot 6972 in His buffer, T2W; unit from the axis Log[ng/mL]
Experimental: as §2

[15] = target: T1, human CTLA4 expressed on the cell …; assay: FACS, cells expressing human CTLA4, assay pH 6.0, MFI; lot 6972 in His buffer, T2W; unit from the axis Log[ng/mL]
Experimental: as §1

Row | EC50 [1] | EC50 [2] | EC50 [3] | EC50 [4] | EC50 [5] | EC50 [6] | EC50 [7] | EC50 [8] | EC50 [9] | EC50 of bioluminescence (RLUs), Promega CTLA4 Blockade Assay, pH 6.0; unit from the axis Log (µg/mL) [10] | EC50 [11] | EC50 [12] | EC50 [13] | EC50 [14] | EC50 [15] | Binder
1 | 1.18 µg/mL | 0.152 µg/mL | 1.54 µg/mL | 0.0441 µg/mL | 1.41 µg/mL | 1.19 µg/mL | 0.814 µg/mL | 1.26 µg/mL |  |  |  |  |  |  |  | BA-087-08-32 (antibody, V domains shown, Detected with anti-human IgG and a molecular weight of 146 kDa was used in SPR, so it was tested as a whole IgG; also called BA-087-08-032; BA-087-08-32 (# 6978)) VH: EVQLVQSGAEVKKPGATVKISCKVSGFTFSHYTMHWIRQSPSRGLEWLGFISYDGNYKYYADSVKGRFTISRDNAKNSLYLQMNSLRAEDTAVYYCARTGWLGPFDYWGQGTLVTVSS VL: EIVMTQSPATLSVSPGERATLSCRASQSVGSSYLAWYQQKPGKAPKLLIYGAFSRATGVPSRFSGSGSGTDFTLTISSLQPEDFATYYCQQDGSSPWTFGQGTKVEIK
2 |  |  |  |  |  |  |  |  | 0.0598 µg/mL | 1.2 µg/mL | 0.0101 µg/mL | 0.223 µg/mL | 0.352 µg/mL | 7.04 ng/mL | 0.295 µg/mL | BA-087-05-19 (antibody, V domains shown, Detected with anti-human IgG and a molecular weight of 146 kDa was used in SPR, so it was tested as a whole IgG; also called BA-087-05-019; BA-087-05-19 (# 6972)) VH: EVQLVESGGGLVQPGGSLRLSCAASGFTFSHYTMHWVRQAPGKGLEWVSFISYDGNNKYYADSVKGRFTISRDNSKNTLYLQMNSLRAEDTAVYYCARTGWLGPFDYWGQGTLVTVSS VL: AIQLTQSPSSLSASVGDRVTITCRASQYVGSSYLAWYLQKPGQSPQLLIYGAFSRATGIPARFSGSGSGTEFTLTISSLQSEDFAVYYCQQDGSSPWTFGQGTKVEIK
